Test results as given in article PMC3485628, “Perlecan domain 1 recombinant proteoglycan augments BMP-2 activity and osteogenesis” (BMC Biotechnology, 2012).

Biological target: T1, recombinant human perlecan domain 1 proteoglycan rhPln.247 (human, UniProt P98160 22-247, heparan sulfate and chondroitin sulfate glycosaminoglycan chains (CS:HS ratio of approximately 2:1); attachment residues not given)
T1 construct: signal peptide in the construct; The secreted product has probably lost the signal peptide; also called rhPln.D1; rPlnD1; source: HEK 293 cells, adenoviral expression system, purified
T1 sequence (P98160 22-247): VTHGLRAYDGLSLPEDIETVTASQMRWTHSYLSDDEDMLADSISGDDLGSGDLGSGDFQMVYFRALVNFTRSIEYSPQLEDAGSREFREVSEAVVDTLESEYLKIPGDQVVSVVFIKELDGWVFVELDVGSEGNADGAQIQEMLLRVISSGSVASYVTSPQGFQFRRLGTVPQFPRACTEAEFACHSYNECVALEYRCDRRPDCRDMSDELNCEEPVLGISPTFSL
Assay: ELISA; rhPln.247 coated directly on polystyrene microtiter wells overnight at 4°C in PBS/N3 at about 1-2 ug/ml; rhBMP-2 or rhBMP-7 serially diluted; retained BMP detected with biotinylated anti-BMP antibodies; background without rhPln.247 subtracted; apparent Kd
Conditions: both partners purified

fold by which rhBMP-2 binds more tightly than rhBMP-7: ~10 fold
B1: recombinant human bone morphogenetic protein-7 (ligand)
chain: STGSKQRSQNRSKTPKNQEALRMANVAENSSSDQRQACKKHELYVSFRDLGWQDWIIAPEGYAAYYCEGECAFPLNSYMNATNHAIVQTLVHFINPETVPKPCCAPTQLNAISVLYFDDSSNVILKKYRNMVVRACGCH
notes: bone morphogenetic protein 7, human, recombinant; also called rhBMP-7; rBMP-7; source: bought: R&D Systems
